The text below walks through data of article PMC3325594 (International Journal of Toxicology, 2012).

In data set [1] the test system is mammary gland of young female rats. The settings on record: 26-week toxicity study; cited from earlier work.
Data set [2] has as its system insulin receptor (IR) signaling. The settings on record: cited from earlier work.
Data set [3] deals with insulin-like growth factor 1 receptor (IGF-1R). The settings on record: in vitro; cited from earlier work.
A further data set relates to insulin receptor (IR). The settings on record: in vitro; cited from earlier work.
Another data set relates to mammalian cell lines. The settings on record: cited from earlier work.
Another data set deals with rats. The settings on record: 12-month toxicity study; cited from earlier work.
For another data set, the system named is female mice. Briefly: 2-year carcinogenicity study, survival rates in female mice. The settings on record: 12.5 IU/kg. In kind it is in vivo.
A further data set relates to female rats. Briefly: 2-year carcinogenicity study, survival rates in female rats. The settings on record: 5 IU/kg. The format is in vivo.

Regarding insulin detemir, the “Proliferative effect in the mammary gland” value in data set [1] is “modest proliferative effect”.

Turning to “[Gly^A21, des-Thr^B30]-human insulin [M2]”, the “In vitro metabolic and mitogenic profiles” value in data set [2] is “comparable with human insulin”.

With [Gly^A21] human insulin [M1], the “In vitro metabolic and mitogenic profiles” value in data set [2] is “comparable with human insulin”.

In the case of [Asp^B10] insulin, the “Affinity toward IGF-1R compared to regular human insulin” value in data set [3] is listed as “higher affinity”. Moreover, in the data set on insulin receptor (IR), the “Affinity toward the insulin receptor (IR) compared to regular human insulin” value is “higher affinity” and the “Occupancy time at the IR compared to regular human insulin” value is “prolonged occupancy time”. In the data set on mammalian cell lines, the “Proliferation rate in mammalian cell lines compared to regular human insulin” value was “higher proliferation rate”. Further, the “Incidence of mammary tumors” value with rats is “higher incidence of mammary tumors”.

Take “NPH: neutral protamine Hagedorn (NPH) insulin, comparator group”: the Survival rate is recorded as 56% in the data set with female mice (week 80); 56% with female mice (week 81); 56% with female mice (week 82); 50% in the data set on female mice (week 85); 72% in the data set with female rats (week 80); 72% in the data set with female rats (week 81). Further, the Survival rate with female rats (week 82) was 72%; with female rats (week 83), 70%; in the data set with female rats (week 84), 70%. Also, the “Survival, animals alive” value with female mice (week 88, of 50 initial animals) was found to be 22 n; with female mice (week 89, of 50 initial animals), 22 n.
